Assay results published in patent US20260061032A1 (GI INNOVATION, published 2026).

T1: membrane-bound human CD73 (human, UniProt P21589 27-549)
T1 sequence: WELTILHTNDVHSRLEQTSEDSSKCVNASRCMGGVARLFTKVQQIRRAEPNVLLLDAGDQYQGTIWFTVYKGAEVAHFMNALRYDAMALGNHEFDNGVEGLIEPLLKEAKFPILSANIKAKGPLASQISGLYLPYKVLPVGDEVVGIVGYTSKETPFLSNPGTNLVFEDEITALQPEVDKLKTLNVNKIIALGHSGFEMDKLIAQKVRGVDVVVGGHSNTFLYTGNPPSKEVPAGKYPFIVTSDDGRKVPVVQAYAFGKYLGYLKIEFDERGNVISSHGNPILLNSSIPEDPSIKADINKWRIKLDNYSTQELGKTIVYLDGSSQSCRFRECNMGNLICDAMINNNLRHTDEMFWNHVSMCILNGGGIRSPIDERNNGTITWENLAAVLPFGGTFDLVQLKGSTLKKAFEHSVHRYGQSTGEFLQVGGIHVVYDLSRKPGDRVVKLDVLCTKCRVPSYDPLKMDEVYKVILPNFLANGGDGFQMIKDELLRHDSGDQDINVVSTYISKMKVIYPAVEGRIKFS

T2: hCD73 (human, UniProt P21589 27-549, limits assumed)
T2 sequence: T1 sequence

T3: mCD73 (UniProt Q61503 29-551, limits assumed)
T3 construct: Species told only by the prefix 'm'
T3 sequence (looked up): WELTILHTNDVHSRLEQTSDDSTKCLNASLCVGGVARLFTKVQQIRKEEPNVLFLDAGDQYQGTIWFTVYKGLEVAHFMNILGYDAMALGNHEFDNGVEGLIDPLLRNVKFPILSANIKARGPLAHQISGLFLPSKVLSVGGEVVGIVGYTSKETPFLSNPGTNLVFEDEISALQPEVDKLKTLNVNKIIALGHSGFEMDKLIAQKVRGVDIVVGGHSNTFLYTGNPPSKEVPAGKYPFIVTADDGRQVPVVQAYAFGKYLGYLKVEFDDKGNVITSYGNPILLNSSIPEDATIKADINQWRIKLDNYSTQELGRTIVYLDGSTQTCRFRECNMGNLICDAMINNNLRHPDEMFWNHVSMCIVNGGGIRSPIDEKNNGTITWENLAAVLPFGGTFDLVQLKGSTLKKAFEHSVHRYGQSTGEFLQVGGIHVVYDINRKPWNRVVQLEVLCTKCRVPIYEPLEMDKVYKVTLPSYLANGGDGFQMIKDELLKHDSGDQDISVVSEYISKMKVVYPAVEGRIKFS

T4: hIL-2Rβγ (human, UniProt P14784 27-239; P31785 23-254)
T4 construct: Soluble beta/gamma heterodimer used as SPR analyte
T4 sequence (looked up) 1: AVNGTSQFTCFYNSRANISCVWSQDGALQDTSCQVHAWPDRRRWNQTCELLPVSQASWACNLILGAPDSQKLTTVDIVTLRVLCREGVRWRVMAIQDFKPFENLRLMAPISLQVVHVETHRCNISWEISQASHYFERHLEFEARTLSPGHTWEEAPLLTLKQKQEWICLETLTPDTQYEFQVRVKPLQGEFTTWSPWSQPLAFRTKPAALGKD
T4 sequence (looked up) 2: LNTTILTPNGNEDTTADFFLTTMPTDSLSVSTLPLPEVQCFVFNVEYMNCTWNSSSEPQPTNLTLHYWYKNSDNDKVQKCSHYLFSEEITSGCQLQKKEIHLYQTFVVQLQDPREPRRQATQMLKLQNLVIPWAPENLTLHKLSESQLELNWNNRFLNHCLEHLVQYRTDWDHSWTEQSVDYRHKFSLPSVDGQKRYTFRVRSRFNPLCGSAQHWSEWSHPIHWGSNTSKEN

B1: GI-108B1 (Anti-CD73 Ab-hIgG4 Fc-hIL2v3 fusion protein dimer) (antibody)
heavy: QVQLVQSGAEVKKPGSSVKVSCKFSGGSFTSYSFSWVRQAPGQGLEWMGRIIPVLTTTDYAQKFRDRVTITADESTSTAYMELSGLRSEDTAVYYCASGLKKNWYFDLWGRGALITVSSASTKGPSVFPLAPCSRSTSESTAALGCLVKDYFPEPVTVSWNSGALTSGVHTFPAVLQSSGLYSLSSVVTVPSSSLGTKTYTCNVDHKPSNTKVDKRVESKYGPPCPPCPAPEAAGGPSVFLFPPKPKDQLMISRTPEVTCVVVDVSQEDPEVQFNWYVDGVEVHNAKTKPREEQFNSTYRVVSVLTVLHQDWLNGKEYKCKVSNKGLPSSIEKTISKAKGQPREPQVYTLPPSQEEMTKNQVSLTCLVKGFYPSDIAVEWESNGQPENNYKTTPPVLDSDGSFFLYSRLTVDKSRWQEGNVFSCSVLHEALHNHYTQKSLSLSLGGGGGSGGGGSAPTSSSTKKTQLQLEHLLLDLQMILNGINNYKNPKLTAMLTAKFYMPKKATELKHLQCLERELKPLEEVLNLAQSKNFHLRPRDLISNINVIVLELKGSETTFMCEYADETATIVEFLNRWITFCQSIISTLT
light: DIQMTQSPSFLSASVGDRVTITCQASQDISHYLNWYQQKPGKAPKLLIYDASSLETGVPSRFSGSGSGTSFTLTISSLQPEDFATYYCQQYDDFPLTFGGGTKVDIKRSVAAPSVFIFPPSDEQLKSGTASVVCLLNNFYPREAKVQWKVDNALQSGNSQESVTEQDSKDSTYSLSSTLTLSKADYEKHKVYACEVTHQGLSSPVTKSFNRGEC
notes: IgG4 anti-CD73 antibody with the IL-2 variant fused to the C-terminus of each heavy chain; expressed in CHO cells, purified as a dimer
B2: GI-108A1 (AHF10240) (Anti-CD73 sdAb-hIgG4 Fc-hIL2v3 fusion protein dimer) (Fc fusion)
chain: EVQLVESGGGVVQTGGSLRLSCAASGRTFTHLAMGWFRQAPGKEREFVAAISNSGAGTQFADSVKGRFTISRDNAKNTVYLQMNSLKPEDTAVYYCAADWGTRDSPSKLNAVYDYWGRGTQVTVSSGGGGSAESKYGPPCPPCPAPEAAGGPSVFLFPPKPKDQLMISRTPEVTCVVVDVSQEDPEVQFNWYVDGVEVHNAKTKPREEQFNSTYRVVSVLTVLHQDWLNGKEYKCKVSNKGLPSSIEKTISKAKGQPREPQVYTLPPSQEEMTKNQVSLTCLVKGFYPSDIAVEWESNGQPENNYKTTPPVLDSDGSFFLYSRLTVDKSRWQEGNVFSCSVLHEALHNHYTQKSLSLSLGGGGGSGGGGSGGGGSAPTSSSTKKTQLQLEHLLLDLQMILNGINNYKNPKLTAMLTAKFYMPKKATELKHLQCLERELKPLEEVLNLAQSKNFHLRPRDLISNINVIVLELKGSETTFMCEYADETATIVEFLNRWITFCQSIISTLT
notes: Homodimer through hinge cysteines
B3: GI-108A1 (AHP04167) (Anti-CD73 sdAb-hIgG4 Fc-hIL2v3 fusion protein dimer) (Fc fusion)
chain: EVQLVESGGGLVQAGGSLRLSCVVSGRTFSNYHMGWFRQAPGKEREFVAVIGRSGGPTYYADSVKGRFTISRDNAKNTVYLQMNSLKPEDTAVYYCAGDWRNSDSPSKLKPVYDYWGQGTQVTVSSGGGGSAESKYGPPCPPCPAPEAAGGPSVFLFPPKPKDQLMISRTPEVTCVVVDVSQEDPEVQFNWYVDGVEVHNAKTKPREEQFNSTYRVVSVLTVLHQDWLNGKEYKCKVSNKGLPSSIEKTISKAKGQPREPQVYTLPPSQEEMTKNQVSLTCLVKGFYPSDIAVEWESNGQPENNYKTTPPVLDSDGSFFLYSRLTVDKSRWQEGNVFSCSVLHEALHNHYTQKSLSLSLGGGGGSGGGGSGGGGSAPTSSSTKKTQLQLEHLLLDLQMILNGINNYKNPKLTAMLTAKFYMPKKATELKHLQCLERELKPLEEVLNLAQSKNFHLRPRDLISNINVIVLELKGSETTFMCEYADETATIVEFLNRWITFCQSIISTLT
notes: as for B2

What was measured:
[1] = molecular target: T1, membrane-bound human CD73; experiment: cell-based or functional assay
hCD73 [2] = molecular target: T2, hCD73; experiment: cell-based or functional assay
hCD73 [3] = molecular target: T2, hCD73; experiment: SPR, Biacore T200; binder captured on CM5 chip by human antibody capture kit, CD73 as analyte
Protocol: (§1) To quantitatively analyze the binding affinities to CD73 and IL-2 receptors of […] and GI-108B1, in which the anti-CD73 antibody that specifically binds to CD73 was linked to the IL-2 variant, and Aldesleukin (trade name: PROLEUKIN®, Novartis), the binding affinities were measured using SPR (surface plasmon resonance). Using a BIACORE™ T200 instrument (Cytiva), the binding affinities of GI-108A1 (AHF10240), GI-108A1 (AHP04167) and GI-108B1 to hCD73, cyCD73, mCD73, hIL-2Rα, hIL-2Rβ, and hIL-2Rβγ were analyzed. Oleclumab (Astrazeneca), produced on order from Ybiologics, Inc., was used as a control.
(§2) Specifically, to analyze the binding affinities to hCD73, cyCD73, and mCD73, each of GI-108A1 (AHF10240), GI-108A1 (AHP04167), GI-108B1, and Oleclumab was diluted in HBS-EP+ buffer (Cytiva, USA) and reversibly immobilized on Sensor Chip CM5 (Cytiva, USA) using a human antibody capture kit (Cytiva, USA). CD73 was diluted in HBS-EP+ buffer and then analyzed for association and dissociation at a flow rate of 30 μL/min for 5 minutes each.

cyCD73 = molecular target: T5, cyCD73; experiment: as above
T5 construct: Species told only by the prefix 'cy'
Protocol: as §1, §2

mCD73 = molecular target: T3, mCD73; experiment: as above
Protocol: as §1, §2

hIL-2Rβγ = molecular target: T4, hIL-2Rβγ; experiment: SPR, Biacore T200; biotinylated CD73 on SA chip, binder bound to CD73, hIL-2Rβγ as analyte, single cycle kinetics
Protocol: as §1
To analyze the binding affinity to hIL-2Ra, hIL-2Ra was […] immobilized on Sensor Chip CM5 using a His capture kit (Cytiva, USA). Each of GI-108A1 (AHF10240), GI-108A1 (AHP04167), GI-108B1 and PROLEUKIN®, diluted in HBS-EP+ buffer, was then applied for 1 minute, followed by analysis of association and dissociation. In addition, the binding affinities to hIL-2RB and hIL-2Rβγ were measured by a three-step analysis method including treating Sensor Chip SA (Cytiva, USA) with biotinylated CD73, and then binding each of GI-108A1 (AHF10240), GI-108A1 (AHP04167), GI-108B1 and PROLEUKIN® to CD73, followed by treatment with each of hIL-2RB and hIL-2Rβγ diluted in HBS-P+ buffer (Cytiva, USA). For hIL-2RB, association was performed for 1 minute and dissociation for 1 minute, and for hIL-2Rβγ, association was performed for 5 minutes and dissociation for 2 hours at each concentration, in a single cycle kinetics analysis. Each sensorgram was normalized and subtracted compared to a blank cell to calculate affinity.

Binder | IC50, inhibition of membrane-bound CD73 enzyme activity on MDA-MB-231 cells (adenosine assay) [1] | IC50, inhibition of soluble CD73 enzyme activity (AMP-Glo assay, recombinant human CD73) (hCD73 [2]) | Kd (hCD73 [3]) | Kd (cyCD73) | binding result (mCD73) | Kd (hIL-2Rβγ) | Kd (mCD73)
B1 | 3.37 nM | 0.126 nM | 0.0894 nM | 0.113 nM | no binding | 0.2 nM | 
B2 | 2.75 nM | 0.06 nM | 0.0502 nM | 0.0841 nM |  | 0.417 nM | 2.62 nM
B3 | 5.58 nM | 0.102 nM | 0.088 nM | 0.0708 nM |  | 0.327 nM | 3.45 nM
